We go through two sequences from paper doi:10.1101/2023.10.26.564249.

The target of the data set is His6-RpoS (sigma S) (Salmonella enterica serovar Typhimurium 14028s) (UniProt D0ZVL4). Briefly: EMSA. Conditions: LightShift chemiluminescent EMSA kit, 20 uL: 1 ng biotin-DNA, 2 uL binding buffer, 1 ug poly(dI.dC), 1 uL 50% glycerol, 1 uL 1 M KCl (about 50 mM added). Background: A gel shift assay detects complexes by their altered migration in electrophoresis.
Sequence of His6-RpoS (sigma S) (Salmonella enterica serovar Typhimurium 14028s) (D0ZVL4 whole entry): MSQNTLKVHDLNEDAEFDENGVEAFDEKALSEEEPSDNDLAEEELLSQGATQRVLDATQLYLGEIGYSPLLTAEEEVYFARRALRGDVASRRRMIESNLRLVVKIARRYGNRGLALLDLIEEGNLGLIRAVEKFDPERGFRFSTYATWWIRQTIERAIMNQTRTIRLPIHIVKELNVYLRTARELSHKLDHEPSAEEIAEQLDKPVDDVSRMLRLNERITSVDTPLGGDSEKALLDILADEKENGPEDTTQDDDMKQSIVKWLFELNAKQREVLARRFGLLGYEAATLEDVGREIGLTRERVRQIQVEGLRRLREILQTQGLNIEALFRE

As to “ACTCGTATGTTTATCATGCAACCTATAAATAAATGTTATATTCAATAACTAATATTACATCTCAAATTCTCTCAAGTATGTCATAACGCTGCAGCAAATAAAAGTCAGTCAGC (double strand) [waaZ promoter]”, the binding result was “binds”.

For “ACTTCCCCGAGCTTAAAAATGACCCAAACGGGTGTACCGATCTTAGTCTGCTGGCTGGCGCTGTAGCAAAGTTTAATGTCATCGGTAACCGGCTGGATTTAGCGATCCCTCAAATCGCG (double strand) [sthC promoter]”, the binding entry is “binds”.
